This data set deals with the molecule itself. The data set can be described thus: SEC; size exclusion chromatography in the purification of the WW domain; column and buffer not shown (SI).

Here are results for one protein from paper PMC4960638, “Changes in the folding landscape of the WW domain provide a molecular mechanism for an inherited genetic syndrome” (Scientific Reports, 2016).

Bridges are numbered along the chain shown (N, C = ends). Where no end group is shown, it is not given here.

B1: WW domain of polyglutamine tract-binding protein 1 (PQBP1), Y65C mutant, 37 amino acid construct (domain or fragment, human, UniProt O60828 47-83, looked up)
chain: GLPPSWYKVFDPSCGLPYCWNADTDLVSWLSPHDPNS
modifications: disulfide 14-19 (inferred); not fully specified
notes: the mutation causes Golabi-Ito-Hall syndrome; also called Y65C WW domain; WW Y65C; source: purified by size exclusion chromatography
In the case of B1, the “stoichiometry N” value worked out at 2.
